US9109237B2, “Method of preparing piceatannol using bacterial cytochrome P450 and composition therefor” (priority 2008, dated 2015)

T1: human CYP1A2 (Homo sapiens, UniProt P05177)
T1 sequence (P05177 1-516): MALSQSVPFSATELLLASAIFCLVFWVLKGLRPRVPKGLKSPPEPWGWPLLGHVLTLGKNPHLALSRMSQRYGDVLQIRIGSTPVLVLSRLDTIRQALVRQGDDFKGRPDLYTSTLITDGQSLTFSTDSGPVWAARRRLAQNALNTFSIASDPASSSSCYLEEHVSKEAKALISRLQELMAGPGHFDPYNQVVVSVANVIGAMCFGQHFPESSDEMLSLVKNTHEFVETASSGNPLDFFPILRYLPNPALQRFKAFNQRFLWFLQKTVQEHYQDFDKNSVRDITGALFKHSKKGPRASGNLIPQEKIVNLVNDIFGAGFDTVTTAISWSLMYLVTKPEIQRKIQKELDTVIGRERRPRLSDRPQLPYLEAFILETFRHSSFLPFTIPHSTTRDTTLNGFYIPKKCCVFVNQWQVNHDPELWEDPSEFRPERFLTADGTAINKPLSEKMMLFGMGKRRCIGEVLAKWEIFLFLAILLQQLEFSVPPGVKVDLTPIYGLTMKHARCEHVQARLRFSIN

B1: human CYP1A2: Human cytochrome P450 1A2, prepared as disclosed by Kim et al. (2008c); comparison enzyme (protein, UniProt P05177 2-516, looked up)
Cytochrome P450 1A2: ALSQSVPFSATELLLASAIFCLVFWVLKGLRPRVPKGLKSPPEPWGWPLLGHVLTLGKNPHLALSRMSQRYGDVLQIRIGSTPVLVLSRLDTIRQALVRQGDDFKGRPDLYTSTLITDGQSLTFSTDSGPVWAARRRLAQNALNTFSIASDPASSSSCYLEEHVSKEAKALISRLQELMAGPGHFDPYNQVVVSVANVIGAMCFGQHFPESSDEMLSLVKNTHEFVETASSGNPLDFFPILRYLPNPALQRFKAFNQRFLWFLQKTVQEHYQDFDKNSVRDITGALFKHSKKGPRASGNLIPQEKIVNLVNDIFGAGFDTVTTAISWSLMYLVTKPEIQRKIQKELDTVIGRERRPRLSDRPQLPYLEAFILETFRHSSFLPFTIPHSTTRDTTLNGFYIPKKCCVFVNQWQVNHDPELWEDPSEFRPERFLTADGTAINKPLSEKMMLFGMGKRRCIGEVLAKWEIFLFLAILLQQLEFSVPPGVKVDLTPIYGLTMKHARCEHVQARLRFSIN
B2: WT: BM3 wild type; bacterial cytochrome P450 BM3 (CYP102A1) from Bacillus megaterium, SEQ ID NO:16 (protein, listed as Bacillus megaterium)
chain: TIKEMPQPKTFGELKNLPLLNTDKPVQALMKIADELGEIFKFEAPGRVTRYLSSQRLIKEACDESRFDKNLSQALKFVRDFAGDGLFTSWTHEKNWKKAHNILLPSFSQQAMKGYHAMMVDIAVQLVQKWERLNADEHIEVPEDMTRLTLDTIGLCGFNYRFNSFYRDQPHPFITSMVRALDEAMNKLQRANPDDPAYDENKRQFQEDIKVMNDLVDKIIADRKASGEQSDDLLTHMLNGKDPETGEPLDDENIRYQIITFLIAGHETTSGLLSFALYFLVKNPHVLQKAAEEAARVLVDPVPSYKQVKQLKYVGMVLNEALRLWPTAPAFSLYAKEDTVLGGEYPLEKGDELMVLIPQLHRDKTIWGDDVEEFRPERFENPSAIPQHAFKPFGNGQRACIGQQFALHEATLVLGMMLKHFDFEDHTNYELDIKETLTLKPEGFVVKAKSKKIPLGGIPSPSTEQSAKKVRKKAENAHNTPLLVLYGSNMGTAEGTARDLADIAMSKGFAPQVATLDSHAGNLPREGAVLIVTASYNGHPPDNAKQFVDWLDQASADEVKGVRYSVFGCGDKNWATTYQKVPAFIDETLAAKGAENIADRGEADASDDFEGTYEEWREHMWSDVAAYFNLDIENSEDNKSTLSLQFVDSAADMPLAKMHGAFSTNVVASKELQQPGSARSTRHLEIELPKEASYQEGDHLGVIPRNYEGIVNRVTARFGLDASQQIRLEAEEEKLAHLPLAKTVSVEELLQYVELQDPVTRTQLRAMAAKTVCPPHKVELEALLEKQAYKEQVLAKRLTMLELLEKYPACEMKFSEFIALLPSIRPRYYSISSSPRVDEKQASITVSVVSGEAWSGYGEYKGIASNYLAELQEGDTITCFISTPQSEFTLPKDPETPLIMVGPGTGVAPFRGFVQARKQLKEQGQSLGEAHLYFGCRSPHEDYLYQEELENAQSEGIITLHTAFSRMPNQPKTYVQHVMEQDGKKLIELLDQGAHFYICGDGSQMAPAVEATLMKSYADVHQVSEADARLWLQQLEEKGRYAKDVWAG

Legend:
human CYP1A2 = target: T1, human CYP1A2; settings: cited from earlier work
[1] = Resveratrol metabolite profile by HPLC and GC-MS; format: biochemical; settings: HPLC, UV 320 nm
Description: (§1) Oxidation of trans-resveratrol, a substrate of human CYP1A2, by CYP102A1 was identified. Typical steady-state reactions for trans-resveratrol hydroxylation included 50 pmol P450 BM3 in 0.25 ml of a 100 mM potassium phosphate buffer (pH 7.4) were performed along with a specified amount of a substrate. To determine the kinetic parameter of several CYP102A1 mutants, 2 to 100 μM of trans-resveratrol was used. An NADPH-generating system was used to initiate reaction solutions (final concentrations: 10 mM glucose 6-phosphate, 0.5 mM NADP+, and 1 IU yeast glucose 6-phosphate per ml). Trans-resveratrol stocks (20 mM) were prepared in DMSO and diluted into the enzyme reactions with the final organic solvent concentration <1% (v/v). Reactions were generally incubated for 10 min at 37° C., and terminated with 105 μl of ice-cold acetic acid/methanol (95/5, v/v).
After centrifugation of the reaction mixture, the supernatant was analyzed by HPLC (Piver et al. 2004). Samples (30 μl) were injected into a Gemini C18 column (4.6 mm×150 mm, 5 μm, Phenomenex, Torrance, Calif.). The mobile phase A was water containing 87 mM of 0.5% acetic acid/acetonitrile (95/5, v/v); whereas the mobile phase B was acetonitrile/0.5% acetic acid (95/5, v/v). […] Eluates were detected by UV rays at 320 nm. […]

[2] = Kinetic parameters of piceatannol formation (3'-hydroxylation of resveratrol); format: biochemical
Description: as §1, with “Reactions were generally incubated for 10 min at 37° C., and terminated with 105 μl of ice-cold acetic acid/methanol (95/5, v/v).” left out
After centrifugation of the reaction mixture, the supernatant was analyzed by HPLC (Piver et al. 2004). […] Eluates were detected by UV rays at 320 nm.
Kinetic parameters (Km and kcat) were determined using nonlinear regression analysis with GraphPad PRISM software (GraphPad, San Diego, Calif., USA). The data were analyzed using the standard Michaelis-Menten equation: v=kcat[E][S]/([S]+Km), where the velocity of the reaction is a function of the rate-limiting step in turnover (kcat), the enzyme concentration ([E]), substrate concentration ([S]), and the Michaelis constant (Km).

[3] = Rates of piceatannol formation (trans-resveratrol hydroxylation) at fixed substrate concentration, HPLC; format: biochemical; settings: fixed substrate concentration 100 μM trans-resveratrol
Description: as §1
After centrifugation of the reaction mixture, the supernatant was analyzed by HPLC (Piver et al. 2004). Samples (30 μl) were injected into a Gemini C18 column (4.6 mm×150 mm, 5 μm, Phenomenex, Torrance, Calif.). […] Eluates were detected by UV rays at 320 nm.
The ability of wild-type P450 BM3 and mutants of P450 BM3 to oxidize trans-resveratrol was measured at a fixed substance concentration (100 μM).

Molecule | Inhibition of human CYP1A2 (in words) (human CYP1A2) | Metabolites produced on oxidation of resveratrol [1] | Kinetic parameters, result in words [2] | Rate of piceatannol formation [3]
Oc1cc(O)cc(C=Cc2ccc(O)c(O)c2)c1 [Piceatannol, 3,5,3′,4′-tetrahydroxystilbene] | potent inhibitor |  |  | 
Oc1ccc(C=Cc2cc(O)cc(O)c2)cc1 [Resveratrol, 3,4′,5-trihydroxystilbene] | substrate and inhibitor |  |  | 
B1 |  | two major metabolites: piceatannol and other hydroxylated products | kinetic parameters could not be obtained | 
B2 |  | only one major metabolite |  | 0.22 ± 0.01 nmol product/min/nmol P450
